To fix the notation:
B1: h12 (antibody, V domains shown)
VH: QVQLVESGGGLVKPGGSLRLSCAASGFSFSDSYMSWLRQAPGKGLEWVSYISSSSSYTKYTDSVKGRFTISRDNAKNSLYLQMSSLRAEDTAVYYCAREGSPGGQGTLVTVSS
VL: DVVMTQSPLSLPVTLGQPASFSCRSSQSLVFTDGNTFLSWFLQRPGQSPRRLIYRVSNRDPGVPDRFSGSGSGTDFTLKISRVEAEDVGVYYCMQGTQWPFTFGPGTKVDIKR
B2: h4 (antibody, V domains shown)
VH: QVQLVESGGGLVKPGGSLRLSCAASGFTFSDHYMSWIRQTPGKGLEWVSYISSSGTYTNYADSVKGRFIISRDNAKNSLFLQMNSLRAEDTAVYYCAREGSPGGQGTLVTVSS
VL: DVVMTQSPLSLPVTLGQPASISCRSSQSLVFSDGNTYLNWFQQRPGQSPRRLIYKVSDRDPGVPERFSGSGSGTDFTLKISRVEAEDIGVYYCMQGSHWPFTFGPGTKVDIKR
B3: h14 (antibody, V domains shown)
VH: B2 VH with K13E, T40A, K43R, S53N, T56G, I69T, F80Y
VL: B2 VL with I21M, F31D, N39S, P61S, E65D, S70G, I88V, V90I, S97T, H98R
B4: h5 (antibody, V domains shown)
VH: B1 VH with S28T, S32H, L37I, S49A, S56T, T61G, S84N
VL: B2 VL with N39S, Y54F, P61S, E65D, V83M, I88V, S97T, H98Q
B5: h2 (antibody, V domains shown)
VH: B2 VH with D31A, T40A, S53P, G55S, T56S, N59V, I69T
VL: B2 VL with S25P, F31D, N39S, P61S, E65D, G73V, I88V, V90I, S97T
B6: h21 (antibody, V domains shown)
VH: B2 VH with D31A, T40A, S53P, G55S, T56S, N59V, I69T
VL: B2 VL with S26T, F31D, N39S, P61S, E65D, V90I, S97T
B7: h22 (antibody, V domains shown)
VH: B2 VH with D31A, T40A, S53P, G55S, T56S, N59V, I69T
VL: B2 VL with S28N, F31D, N39S, P61S, E65D, S81N, V90I
B8: h19 (antibody, V domains shown)
VH: B1 VH with L37I, K59N, T61A, S84N, A88V
VL: B1 VL with M4L, F21I, F31D, T32S, F37Y, L42Q, P61S, Q98H
B9: 18 (antibody, V domains shown)
VH: B1 VH with S28T, D31A, L37I, S56T, K59N, T61A, S84D, V93M, Y95F
VL: B1 VL with P18S, F21I, F31Y, T32S, N35D, L42Q, R55M, V90I, Q98N, K108R
B10: h13 (antibody, V domains shown)
VH: B1 VH with T61A, S84N
VL: B1 VL with M4L
B11: h11 (antibody, V domains shown)
VH: QVQLVESGGGLVKPGGSLRLSCEASGFTFSAHYMSWIRQAPGKGLEYVSYISGSSSYTNYVDSVKGRFTISRDNAKNSLYLQMNSLRVEDTAVYYCAREGSPGGQGTLVTVSS
VL: B2 VL with M4L, F31D, N39S, Q42H, P61S, E65D, I88V, Q95E, S97T
B12: h17 (antibody, V domains shown)
VH: B2 VH with K13E, T40A, K43R, S53N, T56G, I69T, F80Y
VL: DVVMTQSPLSLPVTLGQPASMSCRSSQSLVDSDGNTYLSWFQQRPGQSPRRLIYKVSDRDSGVPDRFSGGGSGTDFTLKIRRVEAEDVGIYYCMQGTRWPFTFGPGTKVDIKR
B13: h20 (antibody, V domains shown)
VH: B1 VH with L37I, K59N, T61V, S84N, A88V
VL: B1 VL with F21I, F31D, T32S, F37Y, L42Q, P61S, Q98H, K112R
B14: h16 (antibody, V domains shown)
VH: B11 VH with G53S, V61A, V88A
VL: B12 VL with M4L, M21I, Q42H, G70S, R81S, I90V, Q95E, R98H
B15: h10 (antibody, V domains shown)
VH: B11 VH with G53S
VL: B12 VL with M4L, M21I, Q42H, G70S, R81S, I90V, Q95E, R98H
B16: h15 (antibody, V domains shown)
VH: B1 VH with K13R, S28T, S32H, L37I, S53G, T61A, S84N
VL: B1 VL with M4L, F21I, T32S, S39A, L42Q, V56I, P61S, G73D
B17: h25 (antibody, V domains shown)
VH: EVQLVESGGGLVKRGGSLRLSCAASGFTFSSYSMHWVRQAPGKGLEWVSSISSRSTYIYYADSVKGRFTISRDNAKNSLYLQMNSLSAEDTAVYYCARGSGSYYVFDYWGQGTLVTVSS
VL: ELVMTQSPATLSVSPGERATLSCRASQSVSSNLAWYQQKPGQAPRLLIYGASSRATNIPARFSGSGSGTEFTLTISSLQSEDFAVYYCQQYDNWPMYSFGQGTKLEIKR
B18: h1 (antibody, V domains shown)
VH: B17 VH with R14P, H35S, T56N, M83V, S87R
VL: EIVMTQSPATLSVSPGDRATLSCRASQSISSDLAWYQQKPGQAPRLLIYAASTRATGFPARFSGSGSGTEFTLTISSLQPEDFAVYYCQQYNNWPMYAFGQGTKLEIKR
B19: h27 (antibody, V domains shown)
VH: B17 VH with R14P, H35S, T56N, F68I, S87R
VL: B18 VL with I2L, V13M, S30R, A50D, F58I, T74S, P80S, A98T
B20: h29 (antibody, V domains shown)
VH: QVQLVESGGGVVQPGRSLTLSCAASGFTFSRYGMHWVRQAPGKGLEWVTVITYDGRKKYYADSVKGRFTISRDNSQNTLSLQMNSLRAEDTAVYYCAKDLLIGYGMDVWGQGTTVTVSS
VL: DIVMTQSPDSLAVSLGERATIKCKSSQSVFFSSSNKNFLTWYQQKPGQPPKLLIYWASTRESGVPDRFSGSGSGTDFTLTINNLQAEDVTVYYCQQCFSTPYSFGQGTKLEIKR
B21: murine monoclonal antibody 1D6 (antibody, V domains shown)
VH: QIQLVQSGPELKKPGETVKISCKASGYTFTNYAVNWVIQAPGKGLKWMGWINAYTGEPTYADDFKGRFAFSLETSASTAYLQINNLKNEDMGIYFCARGGYDTYALDYWGQGTSVTVSS
VL: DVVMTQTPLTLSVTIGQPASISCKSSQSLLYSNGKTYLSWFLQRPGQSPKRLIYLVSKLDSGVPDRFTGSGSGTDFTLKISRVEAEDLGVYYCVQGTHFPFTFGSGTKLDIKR
notes: also called 106 (anti-zzs01); ID6
B22: murine monoclonal antibody F11 (antibody, V domains shown)
VH: EVQLQQSGPELVKPGASVKISCKTSGYTFTEYTMHWVKQSHGKTLEWIGGIYPNNSGTRYNQKFRGKATLTADKSSSTAYMELRSLTTEDSAVYYCHRYELYWYFDVWGAGTTVTVSS
VL: DIVLTQSPASLAVSLGQRATISCRASKSVSTAGYSYMHWYQQKPGQPPKLLIYLTSNLESGVPARFSGSGSGTDFTLNIHPVEEEDAATYYCQHSREVPYTFGGGTKLEIKR
notes: also called F11 (anti-zzs05)

Substitutions are numbered along the chain they refer to.

In the first test the target is T1, GST-ZZS01 fusion protein (UniProt P08515 1-218 = GST). The test can be described thus: Biacore SPR as in Example 3.3. In general terms: In SPR one partner is held on a chip, and binding of the other changes the refractive index at the surface.
T1 sequence (P08515 1-218, tags or fused parts left off): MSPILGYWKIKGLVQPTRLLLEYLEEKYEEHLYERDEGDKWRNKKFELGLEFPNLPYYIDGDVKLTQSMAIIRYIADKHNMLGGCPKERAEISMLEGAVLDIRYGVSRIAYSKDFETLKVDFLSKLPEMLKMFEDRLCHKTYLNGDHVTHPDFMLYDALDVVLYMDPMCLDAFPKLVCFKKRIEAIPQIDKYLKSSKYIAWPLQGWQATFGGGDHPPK
On to B1, for which binding was characterised by a dissociation constant (Kd) of 6.03 nM. That is a single-digit nanomolar value.
Same read-out and setting: then B2, with 2.86 nM.
In the case of B3, the Kd (commonly the free concentration of one partner at which half of the binding sites on the other are occupied at equilibrium, for simple one-to-one binding) turned out to be 4.39 nM.
Still for that read-out and setting: then B4, with 10.1 nM.
The same measure, in the same setting: the value for B5 was 5.24 nM; that for B6 was 1.48 nM.
B7 gave a dissociation constant (Kd) of 0.104 nM. This Kd lies about 14-fold lower than the previous one.
Still for that read-out and setting: the value for B8 was 3.53 nM.
On the same count and under the same terms, then B9, with 3.46 nM; and B10, with 3.66 nM.
The molecule B11 showed a dissociation constant (Kd) of 0.652 nM.
For B12, the Kd amounted to 3.18 nM.
On the same count and under the same terms, the value for B13 was 2 nM; that for B14 was 2.17 nM.
B15 yielded a Kd of 0.0847 nM.
Same read-out and setting: then B16, with 5.78 nM.
The same measure, in the same setting: the value for B17 was 0.32 nM; that for B18 was 0.289 nM.
The same measure, in the same setting: the value for B19 was 0.16 nM.

In another test the target is T2, GST-ZZS05 fusion protein (UniProt P08515 1-218 = GST). Description: Biacore SPR as in Example 3.3.
T2 sequence (P08515 1-218, tags or fused parts left off): as above
B20 showed an equilibrium dissociation constant (Kd) of 1.2 nM. This counts as single-digit nanomolar.

The target of a further test is T1, GST-ZZS01 fusion protein. The test can be described thus: Biacore SPR, 25 C; GST-antigen captured on anti-GST CM5 chip, antibody injected.
Regarding B21, the dissociation constant (Kd) worked out at 4.82 nM; the koff (in general, a measure of how fast the partners let go of each other) is 1.19e-05 s⁻¹; the on-rate (kon) (commonly the rate constant with which the complex forms) worked out at 2480 M⁻¹ s⁻¹.

In a further test the target is T2, GST-ZZS05 fusion protein. The test is described as above.
As to B22, the Kd was determined as 6.9 nM, the koff came out at 0.000949 s⁻¹ and the kon turned out to be 137000 M⁻¹ s⁻¹.
